# Patent US20240209061A1, “FUSION PROTEINS AND USES THEREOF” (Pfizer Inc., priority 2020, published 2024)
# Legend:
# [1] = tested on: Jurkat-IL-2-Luc reporter cells; experiment: Jurkat-IL-2-Luc and HCT116-CD64 reporter co-stimulation assay; format: cell-based, human; details: Table 17; 20 ng/ml CDH3×CD3 bispecific; n=2
# Text: A T cell co-stimulation assay was designed based on T Cell Activation Bioassay (IL-2) Kit from Promega (Product #J1631). The assay consisted of a genetically engineered Jurkat T cell line that expresses luciferase reporter driven by an IL-2 promoter. Co-engagement of T cell antigen receptor (TCR/CD3) and CD28 co-stimulatory receptor induces activation of T cells and downstream intracellular signaling pathways that in turn regulate the expression of luciferase reporter. As described above, HCT116 human colon cancer cell line was used for TCR engagement using the CDH3×CD3 bispecific and genetically engineered by lentiviral transduction to express human FCγRI.
# A 96 well culture plate was seeded with HCT116 parental or HCT116-CD64 cells at 40,000 cells per well in 100 μL RPMI with 10% HI FBS and grown overnight at 37° C. in CO2 incubator. To each well, Jurkat reporter cells (100,000 per well) and 10 μL of the CDH3×CD3 bispecific (8 ng/ml final concentration) were added. 10 μL of serial dilutions of variant CD80-Fc fusion proteins with concentrations ranging from 0-1000 ng/ml (final concentrations per well) was added with appropriate controls. Assay plates were incubated for 6 hours at 37° C. in CO2 incubator for before harvesting culture supernatants and transferring to new plates. Following equilibration, 80 μL of BioGlo luminescence reagent (BioGlo Luciferase assay kit, Promega, G7940) was added into each well. Plates were incubated for 5 minutes before reading luminescence on the EnSight™ plate reader (PerkinElmer).
# Jurkat is an immortalized human T cell line, and the Jurkat IL-2-reporter assay assesses the CD28-mediated signaling resulting in activation of the IL-2 promoter. The activity of CD80-Fc fusion proteins was measured using the co-culture HCT116-CD64-Jurkat IL-2 reporter assay, as described in Example 2, but using 20 ng/ml CDH3×CD3 bispecific.
# [2] = Thermal forced aggregation (SEC); format: physicochemical; details: 24 hours, PBS
# Experimental: To assess the aggregation propensity of variant CD80-Fc fusion proteins, 1 mg/ml of CD80-Fc fusion protein was incubated in PBS at increasing temperatures for 24 hours. The samples were analyzed by SEC on an Agilent 1100 (Agilent Technologies, Germany) HPLC system using a YMC-Pack Diol-200 (YMC, Germany) analytical size exclusion chromatography column and PBS supplemented to 400 mM NaCl as running buffer. % aggregation was calculated from the loss of intact peak area. […] ND=Not Determined.
# [3] = tested on: peripheral blood mononuclear cells (PBMC); experiment: RESTORE cytokine release assay in absence of TCR stimulation; format: cell-based, human; set-up: IFNγ: unit not given beside the values
# Experimental: The ability of variant CD80-Fc fusion proteins to promote cytokine release in the absence of TCR stimulation was assessed in the RESTORE (RESetting T cells to Original Reactivity) assay (Römer et al, Blood, 2011). Freshly isolated peripheral blood mononuclear cells (PBMC) from whole blood of several healthy donors were cultured for 48 hours at […] within RPMI1640 media supplemented with 10% autologous plasma, 10 mM HEPES, 1× GlutaMAX, 1× PenStrep, beta2-mercaptoethanol, NEAA and sodium pyruvate. Following the 48-hour incubation, PBMC were pelleted and resuspended at a final concentration of 10^6/ml with indicated soluble drug. Treatment was allowed for 48 hours then supernatant was harvested and assessed in IL-2 and IFNγ ELISA according to manufacturer's protocol (BioLegend).
# Positive controls included CD28 superagonist anti-CD28 clone TGN1412 as IgG1 and IgG4 isotypes and anti-CD3. […] Values shown are the average of 3 technical replicates. D=Donor.
# [4] = Pharmacokinetics in cynomolgus monkeys; format: in vivo; details: cynomolgus monkey
# Experimental: PK of variant CD80-Fc fusion proteins was assessed in non-human primates. […] A ligand binding assay using the Gyrolab Immunoassay platform was used to quantitate CD80-Fc molecules in cynomolgus monkey serum following dose administration. CD80-Fc constructs were captured onto the Gyrolab Bioaffy CD using a biotinylated monoclonal anti-human CD80 antibody (Thermo Fisher Cat #13-0809-82). Bound CD80-Fc constructs were detected using a mouse anti-human Fc antibody (SouthernBiotech Cat #9040-01) that was labeled with Alexa Fluor 647. Sample concentrations were determined by interpolation from a calibration curve that were fit using a 5-parameter logistic regression model. The range of quantitation of the assay was 100-15000 ng/ml in 100% serum. […] AUC (Area Under the Curve); Cmax (Maximum Concentration observed); Tmax (Time of Maximum concentration observed)
substance,measurement,setting,value
"CD80-K89Q-D90Q-E23C-A26C-Fc: disulfide stabilized variant CD80-Fc fusion protein (K89Q, D90Q, E23C, A26C)",EC50,[1],0.27 ± 0.044 nM
same,% aggregation,"[2]; Table 11, 54.9° C.",3.2%
same,% aggregation,"[2]; Table 11, 59.1° C.",22.8%
same,% aggregation,"[2]; Table 11, 64° C.",36.2%
same,% aggregation,"[2]; Table 12, 40° C.",0.6%
same,% aggregation,"[2]; Table 12, 45.3° C.",2.9%
same,% aggregation,"[2]; Table 12, 49.4° C.",0.5%
same,% aggregation,"[2]; Table 12, 54.9° C.",6.7%
same,% aggregation,"[2]; Table 12, 59.1° C.",55.9%
same,% aggregation,"[2]; Table 12, 64° C.",68.8%
same,IFNγ,"[3]; Table 20, D222, 1 μg/ml",7.3
same,IFNγ,"[3]; Table 20, D222, 10 μg/ml",4.3
same,IL-2,"[3]; Table 20, D222, 10 μg/ml",6.7
same,IFNγ,"[3]; Table 20, D281, 1 μg/ml",3.0
same,IL-2,"[3]; Table 20, D281, 1 μg/ml",2.7
same,IFNγ,"[3]; Table 20, D281, 10 μg/ml",3.7
same,IL-2,"[3]; Table 20, D281, 10 μg/ml",5.7
same,IFNγ,"[3]; Table 20, D462, 1 μg/ml",7.0
same,IL-2,"[3]; Table 20, D462, 1 μg/ml",2.0
same,IFNγ,"[3]; Table 20, D462, 10 μg/ml",7.3
same,IL-2,"[3]; Table 20, D462, 10 μg/ml",3.0
same,IFNγ,"[3]; Table 20, D547, 1 μg/ml",4.3
same,IL-2,"[3]; Table 20, D547, 1 μg/ml",13.3
same,IFNγ,"[3]; Table 20, D547, 10 μg/ml",3.0
same,IL-2,"[3]; Table 21, D132, 1.9 μg/ml",0.0
same,IL-2,"[3]; Table 21, D132, 5.6 μg/ml",0.0
same,IL-2,"[3]; Table 21, D132, 16.7 μg/ml",0.3
same,IL-2,"[3]; Table 21, D149, 1.9 μg/ml",0.0
same,IL-2,"[3]; Table 21, D149, 5.6 μg/ml",0.0
same,IL-2,"[3]; Table 21, D149, 16.7 μg/ml",0.0
same,IL-2,"[3]; Table 21, D149, 50 μg/ml",0.0
same,IL-2,"[3]; Table 21, D379, 1.9 μg/ml",29.0
same,IL-2,"[3]; Table 21, D379, 5.6 μg/ml",2.3
same,IL-2,"[3]; Table 21, D379, 16.7 μg/ml",0.0
same,IL-2,"[3]; Table 21, D379, 50 μg/ml",0.0
same,IL-2,"[3]; Table 21, D399, 1.9 μg/ml",0.0
same,IL-2,"[3]; Table 21, D399, 5.6 μg/ml",2.0
same,IL-2,"[3]; Table 21, D399, 16.7 μg/ml",0.0
same,IL-2,"[3]; Table 21, D399, 50 μg/ml",0.0
same,IL-2,"[3]; Table 21, D417, 1.9 μg/ml",3.0
same,IL-2,"[3]; Table 21, D417, 5.6 μg/ml",0.0
same,IL-2,"[3]; Table 21, D417, 16.7 μg/ml",0.3
same,IL-2,"[3]; Table 21, D417, 50 μg/ml",0.0
same,IL-2,"[3]; Table 21, D518, 1.9 μg/ml",0.0
same,IL-2,"[3]; Table 21, D518, 5.6 μg/ml",2.0
same,IL-2,"[3]; Table 21, D518, 16.7 μg/ml",1.7
same,IL-2,"[3]; Table 21, D518, 50 μg/ml",2.7
same,IFNγ,"[3]; Table 22, D132, 1.9 μg/ml",0.0
same,IFNγ,"[3]; Table 22, D132, 5.6 μg/ml",78.0
same,IFNγ,"[3]; Table 22, D132, 16.7 μg/ml",0.0
same,IFNγ,"[3]; Table 22, D132, 50 μg/ml",0.0
same,IFNγ,"[3]; Table 22, D149, 1.9 μg/ml",0.0
same,IFNγ,"[3]; Table 22, D149, 5.6 μg/ml",0.0
same,IFNγ,"[3]; Table 22, D149, 16.7 μg/ml",0.0
same,IFNγ,"[3]; Table 22, D149, 50 μg/ml",41.3
same,IFNγ,"[3]; Table 22, D379, 1.9 μg/ml",0.0
same,IFNγ,"[3]; Table 22, D379, 5.6 μg/ml",0.0
same,IFNγ,"[3]; Table 22, D379, 16.7 μg/ml",0.0
same,IFNγ,"[3]; Table 22, D379, 50 μg/ml",0.0
same,IFNγ,"[3]; Table 22, D399, 1.9 μg/ml",0.0
same,IFNγ,"[3]; Table 22, D399, 5.6 μg/ml",0.0
same,IFNγ,"[3]; Table 22, D399, 16.7 μg/ml",0.0
same,IFNγ,"[3]; Table 22, D399, 50 μg/ml",4.3
same,IFNγ,"[3]; Table 22, D417, 1.9 μg/ml",0.0
same,IFNγ,"[3]; Table 22, D417, 5.6 μg/ml",0.0
same,IFNγ,"[3]; Table 22, D417, 16.7 μg/ml",0.0
same,IFNγ,"[3]; Table 22, D417, 50 μg/ml",0.0
same,IFNγ,"[3]; Table 22, D518, 1.9 μg/ml",0.0
same,IFNγ,"[3]; Table 22, D518, 5.6 μg/ml",0.0
same,IFNγ,"[3]; Table 22, D518, 16.7 μg/ml",20.7
same,IFNγ,"[3]; Table 22, D518, 50 μg/ml",0.0
same,AUC,[4]; 3 mpk IV,3680 µg·h/mL
same,AUC fold-increase over WT,[4]; 3 mpk IV,1.48
same,Cmax,[4]; 3 mpk IV,107 µg/mL
same,Tmax,[4]; 3 mpk IV,4.98 min
same,AUC,[4]; 15 mpk IV,27800 µg·h/mL
same,AUC fold-increase over WT,[4]; 15 mpk IV,2.00
same,Cmax,[4]; 15 mpk IV,627 µg/mL
same,Tmax,[4]; 15 mpk IV,4.98 min
same,AUC,[4]; 50 mpk IV,72200 µg·h/mL
same,AUC fold-increase over WT,[4]; 50 mpk IV,1.95
same,Cmax,[4]; 50 mpk IV,1790 µg/mL
same,Tmax,[4]; 50 mpk IV,4.98 min
